Measurements: patent US20160290999A1 (SYSMEX, published 2016)
No end group written: not given here.

Key:
[1] = target: T1, Human serum albumin (human, UniProt P02768 25-609); test: fluorescence titration of TMR-labelled peptide against HSA, Hill fit (Example 2, FIG. 6)
T1 construct: Purchased protein used in solution; In the hydrothermal experiments it is heat-aggregated into an insoluble precipitate; also called HSA
Procedure: (§1) Each of the resulting mixtures was subjected to measurement with a spectrophotofluorometer [product name: F-7000, manufactured by Hitachi High-Technologies Corporation] and the fluorescence intensity with an excitation wavelength of 540 nm and a fluorescence wavelength of 580 nm (hereinafter, referred to as “fluorescence intensity A”) was measured.

[2] = target: T1, Human serum albumin; test: Kd as classified from the fluorescence titration; told in Example 4 of the peptides of samples F and G
[3] = target: T1, Human serum albumin; test: fluorescence titration of TMR-labelled peptide against HSA, Hill fit (as in Example 1)
Procedure: as §1

B1: TMR-labeled SA21 (peptide)
peptide: DDEWLCGWRPLCIDEILR
modifications: cysteine pairing not given here; also: TMR label, site not given here
notes: The free text was followed; also called TMR-SA21; TMR-labeled SA1
Kd [1]: < 500 µM

LVAASQAALGL (also: TMR label, site not given here) [TMR-labeled HSA 599-609 fragment]
Kd [2]: ≥ 500 µM

B2: TMR-labeled ACTH (1-39) (peptide)
peptide: SYSMEHFRWGKPVGKKRRPVKVYPNAGENESAEAFPLEF
modifications: also: TMR label, site not given here
notes: The free text was followed; also called Adrenocorticotropic hormone (ACTH) (1-39)
Kd [3]: 520 µM
